Assay: yeast display, Sf9 membrane polyspecificity reagent, FACS + sequencing; frameworks hold sequencing errors
Outline: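 Genes from sorted yeast were amplified by colony PCR, read by MiSeq 2 × 250 sequencing and filtered on CDR length. These cells carried a synthetic nanobody library in Saccharomyces cerevisiae BJ5465 and were sorted by FACS into low and high (top ~1%) gates on anti-HA and streptavidin fluorescence. Polyreactivity is labelled according to the gate of origin.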

Row | Sequence | polyreactivity (PSR sort gate)
1 | QVQLVESGGGLVQAGGSLRLSCDASGLTFRYYAMVWYRQAHGKERELDATITRAGRTNYADSVKGRFTISRDNAKNTVYFQMNRLNPEDTAVYYCNAKQSGKYPRVVGYDYWGQGTQVTVSS | high polyreactivity
2 | QVQLVESGGGLVQAGGSLRLSCDASGRIFQPNVMGWYRQAPGKERELVAAIRSGSSTYYADSVKGRFTISRDNAKNTFYLQMNSLKPEDTAVYYCATRYRKQYKPYEYWGQGTQVTVSS | high polyreactivity
3 | QVQLVESGGGLVQAGGSLRLSCDASGRIFRENAMGWYRQAPGKERELVAAINRSGSRTYYADSVKGRFTISRDNAKNTVYLQMNSLKPEDTAVYYCATASSIRYDYWGQGTQVTVSS | high polyreactivity
4 | QVQLVESGGGLVQAGGSLRLSCDASGRIFSPNTMGWYRQAPGKERELVAAISRGGSTYADSVKGRFTISRDNAKITVYLQMNSLKPEDTAVYYCNARYGRYYGAYEYWGQGTQVTVSS | high polyreactivity
5 | QVQLVESGGGLVQAGGSLRLSCDASGRILKYYDMGWYRQAPGKERELVAAISVSGTSTYYADSVKGRFTISRDNAKNTVYLQMNSLKPEDTAVYYCATATGRYSFDYWGQGTQVTVSS | low polyreactivity
6 | QVQLVESGGGLVQAGGSLRLSCDASGRIYGYNAIAWYRQAPGKERELVAAITNGGSTNYADSVKGRFTISRDNAKNTVFLQMNSLKPDETAVYYCAVKWYAPGHDYWGQGTQVTVSS | low polyreactivity
7 | QVQLVESGGGLVQAGGSLRLSCDASGRIYLYAMGWYRQAPGKERELVAAITTRAGRTYYADSVKGRFTISRDNAKNTVYFQMNSLKPEDNAVSYCAADGTRYPAYGYWGQGTQVTVSS | low polyreactivity
8 | QVQLVESGGGLVQAGGSLRLSCDASGRSSVSMLMVWYRQAPGKERELVARITGSGGSTYYADSVKGRFTISRDNAKNTVYLQMNSLKPEDTAVYYCAARYLWRGRYNYWGQGTQVTVSS | high polyreactivity
9 | QVQLVESGGGLVQAGGSLRLSCDASGRTFDVYTKGWYRQAPGKERELVDANNGGGSTYYADSVKGRFTISRDNAKNTVYLQMNSLKPEDPAVFYCAAKFRAGRSSYRGSPRYDSWGQGTHVTVSS | high polyreactivity
10 | QVQLVESGGGLVQAGGSLRLSCDASGRTFKYYAMGWYRQAPGKERELVAVITSGGSTYYADSVKGRFTISRDNAKNTVYLQMNSLKPEDTAVYYCAKSSHAREYYYWGQGTQVTVSS | low polyreactivity
11 | QVQLVESGGGLVQAGGSLRLSCDASGRTFLTNTMGWYRQAPGKERELVAAISSGGSTKYADSVKGRFTISRDNAKNTVYLQMNSLKPEDNAVYYCAATGWRYGYKYYYWGQGTQVTVSS | high polyreactivity
12 | QVQLVESGGGLVQAGGSLRLSCDASGRTFPEYGMGWYRQAPGKEREFVAAISTRGGSTYYANSVKGRFTISRDNAKNTVYLQMNSLKPEDTAVYYCAAKYPGGETYPFDYWGQGTQVTVSS | low polyreactivity
13 | QVQLVESGGGLVQAGGSLRLSCDASGRTFRYYAMGWSRQAPGKERELVAAISASGGSTFYADSVKGRFTISRDNAKNSVYLQMKSLKPEDTAVYYCAAYHYCVFPYKQYDYWGQGTQVTVSS | high polyreactivity
14 | QVQLVESGGGLVQAGGSLRLSCDASGSIFFSYAMGWYRQAPGTEREFVAAINSDDASTYADSVKGRFTISRDNAKNTVYLQMNSLKPEDTAVYYCADSFLWSWYDYWGQGTQVTVSS | low polyreactivity
15 | QVQLVESGGGLVQAGGSLRLSCDASGSIFGSYVMGWSRQAPGKERELVAAISSSGASTYYADSVKGRFTISRDNAKNTVYLQMNSLKPEDTAVYYCATTRRPYVRGYPHYYWGQGTQVTVSS | high polyreactivity
16 | QVQLVESGGGLVQAGGSLRLSCDASGSIFIPYAMGWYRQAPGKERELVAAISGSGTSTNYADSVKGRFTISRDNAKNTVYLQMNSLKPEDTAVYYCAARLPYGYLRSKFYYWGQGTQVTVSS | high polyreactivity
17 | QVQLVESGGGLVQAGGSLRLSCDASGSIFNRNVMGWYRQAHGKERELVAVITGSGDSTFYADSVKGRFTISRDNAKNTVYLQRNSLIPDDTAVYYCNARLVSGGYYYWGLGTQVTVSS | low polyreactivity
18 | QVQLVESGGGLVQAGGSLRLSCDASGSIFPLYAMGWYRQAPGKERELVAAITSGTSTNYADSVKGRFTISRDNAKNTVYLQMNSLKPEDTAVYYCAADVYTRFWRVYRFDYWGQGTQVTVSS | low polyreactivity
19 | QVQLVESGGGLVQAGGSLRLSCDASGSIFRPNAMGWYRQPPGKERELVAAITWIAGGTYYADSVKGRFTISRDNAKNTVYLQMNSLKPEDTAVYYCAARWYFQTGVGRYYHYDYWGQGTQVTVSS | high polyreactivity
20 | QVQLVESGGGLVQAGGSLRLSCDASGSIFSQYAMGWDRQAPGKEWELVAAITWSGGSTYYADSVMGRFTFSRDNAKNTVYLQMNSLKPEDTEVYYCAATGYYYTRSSTWYRYYYWGQGTQVTVSS | high polyreactivity
21 | QVQLVESGGGLVQAGGSLRLSCDASGSIFSYYAMGWYRQAPGKERELVAAITYRGGSTFYADSVKGRFTLSRDNAKNTVYFQMNRLKPEDTAVYYCATRYYVDQRYQYKYDYWGQGTQVTVSS | high polyreactivity
22 | QVQLVESGGGLVQAGGSLRLSCDASGSIFVLNAMGWYRQAPGKERELVAAISYSGGSTYYADSVKGRFTISRDNAKNTVYLQMNSLKPEDTAVYYCAADLVSYYGYSSEYEYWGQGTQVTVSS | high polyreactivity

Row | Sequence | polyreactivity (PSR sort gate)
23 | QVQLVESGGGLVQAGGSLRLSCDASGSTFIYYTMGWYRQAPGKERELVAAINGGGGSTYYADSVKGRFTISRDNAKNTVYLQMNSLKPEDTAVYYCATDPWHRAWGYGWGYNYWGQGTQVTVSS | low polyreactivity
24 | QVQLVESGGGLVQAGGSLRLSCDASGSTFPKYAMGWYRQAPGKEWELVASISARGGGTHYADSVKGRFTISRDNAKNTVYLQMNSLKPEDTAVYYCNDVAHRQAQGAWGPGTQVTVSS | low polyreactivity
25 | QVQLVESGGGLVQAGGSLRLSCDDSGGIFQENAMGWYTQAPGKERELVATSTRSTGSTYYADSVKGRFTISRDTAKNTVYLQMNSLKPEDTAVYYCAARRLSQYYRYAYKYDYWGQVTQVTVSS | high polyreactivity
26 | QVQLVESGGGLVQAGGSLRLSCDDSGSIFWWYTMGWYRQAPGKERELVAAITWNADGTYYADSVKGRFTISRDNAKNTVYLPINSLKPEDTAVYYCAADQYYLDWGGGYDYWGQGTQLTVSS | low polyreactivity
27 | QVQLVESGGGLVQAGGSLRLSCDDSGTFFMGWNIPAPRKERELVAGISISDGSTYYADSVKGRFTISRDNAKNSVYLQMNSLKPEDTAVYYCAADSHYLYDYWGQGTQVTVSS | low polyreactivity
28 | QVQLVESGGGLVQAGGSLRLSCGASGFFFEPNSMGWYRQATGKERELVAAISSGGSTYADSVKGRFTISRDNAKNPVYLQMNSLKPEDTAVYYCAARPNQSYYGLYYYWGQGTQVTVSS | low polyreactivity
29 | QVQLVESGGGLVQAGGSLRLSCGASGFIFGSYAMGWYRQAPGKERELVAAISWSGGGTYYADSVKGRFTISRDNAKNTVYLQMNRLNPEDTAVYYCGALTRYKTASGYDYWGQGTQVTVSS | high polyreactivity
30 | QVQLVESGGGLVQAGGSLRLSCGASGGIFYLYAMGWSRQAPGKERELVAAITWSADSTYYADSVKGRFTISRDNAKNTVYLQMNSLKPEDTAVYYCNADVAWQYGKGWSWDIDDYWRQGTQVTVSS | low polyreactivity
31 | QVQLVESGGGLVQAGGSLRLSCGASGRIISKYAMGWYRQAPGKERELVAAITSRGGNTYYAVSVKGRFTISRDNAKNTVYFQMYSLNPEDTAVYSCNTSPQSRYVFGRVDSWGQGTQVTVSS | high polyreactivity
32 | QVQLVESGGGLVQAGGSLRLSCGASGRTFFWYDMGWYRQAPGKERELVAAISSSTRTKYADSVKGRFTISRDNAKNTVYLQMNSLKPEDSAVSYCAATSDYYHYWYYSSVRRFDYWGQGTQVTVSS | high polyreactivity
33 | QVQLVESGGGLVQAGGSLRLSCGASGRTFGRYAMGWYRQAPGKERELVDAITWSGGSTYYADSVKGRFTISRDNAKNTVYLQMNSLKPEDTAVYYCAASGYPIYHDDYWGQGTQVTVSS | low polyreactivity
34 | QVQLVESGGGLVQAGGSLRLSCGASGRTFISNAMGWYRQAPGKERELVATINSGGSTNYADSVKGRFTISRDNAKNTVYLQMNSLKPEDTAVYYCARRVRYKHYDYWGQGTQVTVSS | high polyreactivity
35 | QVQLVESGGGLVQAGGSLRLSCGASGSIFWVYAMGWYRQAPGKERELVAAISNSGSTNYADSVKGRFTISRDNAKNTVYLQMNSLKPADTAVYYCAKDSLVDHVGGYDYWGQGTQVTVSS | low polyreactivity
36 | QVQLVESGGGLVQAGGSLRLSCGGSGSTFYVNAMGWYRQAPGKEREFVAAITWNSGSTYYADSVKGRFTISRDNAKNTVYLQMHSLKPEDTAVYYCAAVLSVRVYGYDYWGQGTQVTVSS | low polyreactivity
37 | QVQLVESGGGLVQAGGSLRLSCPASGFIYWSYAMGWYRQAPGKERELVADIDSDASTDYADSVKGRFTITRDNAKNTVYLQMNSLKPEDTAVYYCAALASIQQYPGNFYYWGQGTQVTVSS | high polyreactivity
38 | QVQLVESGGGLVQAGGSLRLSCPASGFNFSHNAMGWYRQAPGKERELVAAITWSGAITSYADSVKGRFTISRDNAKNTVYLQMNILKPEDTAVYYCAKLWSWDLSRYGPRVDYWGQGTQVTVSS | low polyreactivity
39 | QVQLVESGGGLVQAGGSLRLSCPASGFTFRRYAMGWSRQQPGKESELDAAITRNGGSTYYADSVKGRFTISRDNAKNTVYLLINRLKPEDTAVYYCNAVLYTPVYDCFDSWGQGTQVTVSS | high polyreactivity
40 | QVQLVESGGGLVQAGGSLRLSCPASGIIFYGYTMGWYRQEPGKERELVAAISRSGGRTYYADSVKGRFTISRDNAKYTVYLQMNSLKPEDTAVYYCAATGSYSDRVEDEFWGQGTQVTVST | high polyreactivity
41 | QVQLVESGGGLVQAGGSLRLSCPASGITFHGYAMGWYTQEPGKERELVAAITRGGSTYYADSVKGRFTISRDNAKNTVYLQMNSLKPEDTAVYYCAARRVGYSTNYYHYNYWGQGTQVSVSS | high polyreactivity
42 | QVQLVESGGGLVQAGGSLRLSCPASGLIFRRNVMGRYRQAPGKERELVAAISRGGSTYNADSVKGRFTISRDNAKNTVFLQMNSLNPEDTAVYYCAAAYTRYVVRGDFWGQGTQVTVSS | high polyreactivity
43 | QVQLVESGGGLVQAGGSLRLSCPASGRIFKSYAMGWYRHAPGKERELVAAINWSGGSKYYADSVKGRFTISRDNAKNTVYLQMNSLKPEDTAVYYCAAYFYGRWPYGTGYYYWGQGTQVTVSS | high polyreactivity

— the nanobody polyreactivity screen of Harvey et al. (2022)
